These are literature values, as cited in article PMC3138520.

This data set addresses NRG-1β (Homo sapiens) (UniProt Q02297).
Chain of UniProt Q02297 (Q02297 20-241): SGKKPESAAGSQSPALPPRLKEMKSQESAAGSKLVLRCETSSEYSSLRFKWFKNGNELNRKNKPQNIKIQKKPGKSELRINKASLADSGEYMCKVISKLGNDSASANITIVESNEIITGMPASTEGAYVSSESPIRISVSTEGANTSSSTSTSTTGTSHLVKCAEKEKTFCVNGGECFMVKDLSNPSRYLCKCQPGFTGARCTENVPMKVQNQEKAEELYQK

As to HER3 (from UniProt P21860), the Kd is 10 nM.
